In patent US20160319321:
Changes are numbered by the printed parent chain. In names and notes the source's numbering stands. Several values for one entry are separate records, joined by “and”; a condition that tells them apart may be missing. Equal values may be shown once.

How the values were obtained:
[1] = biological target: T1, Lys(Dnp)-WDEGDR-HAEGT-Lys(Abz)amide
T1 chain: KWDEGDRHAEGTK

[2] = biological target: T2, Lys(Dnp)-SGGDRHAEGT-Lys(Abz)amide
T2 chain: KSGGDRHAEGTK

[3] = biological target: T3, Lys(Dnp)-DYGDR-EGTFT-Lys(Abz)amide
T3 chain: KDYGDREGTFTK

[4] = biological target: T4, Lys(Dnp)-DLGDR-EGTFT-Lys(Abz)amide
T4 chain: KDLGDREGTFTK

[5] = biological target: T5, Lys(Dnp)-EGGDR-HAEGT-Lys(Abz)amide
T5 chain: KEGGDRHAEGTK

[6] = biological target: T6, Lys(Dnp)-DWGDR-HAEGT-Lys(Abz)amide
T6 chain: KDWGDRHAEGTK

[7] = biological target: T7, Lys(Dnp)-DSGDR-HGTFT-Lys(Abz)amide
T7 chain: KDSGDRHGTFTK

[8] = biological target: T8, Lys(Dnp)-DFGDR-EGTFT-Lys(Abz)amide
T8 chain: KDFGDREGTFTK

[9] = biological target: T9, Lys(Dnp)-DDGDR-HAEGT-Lys(Abz)amide
T9 chain: KDDGDRHAEGTK

[10] = biological target: T10, Lys(Dnp)-ESGDR-HAEGT-Lys(Abz)amide
T10 chain: KESGDRHAEGTK

[11] = biological target: T11, Lys(Dnp)-QEGDR-HGEGT-Lys(Abz)amide
T11 chain: KQEGDRHGEGTK

[12] = biological target: T12, Lys(Dnp)-EEGDR-HAEGT-Lys(Abz)amide
T12 chain: KEEGDRHAEGTK

[13] = biological target: T13, Lys(Dnp)-NEDGDR-HAEGT-Lys(Abz)amide (not fully specified)
T13 chain: KNEDGDRHAEGTK

[14] = biological target: T14, Lys(Dnp)-EFGDR-HAEGT-Lys(Abz)amide
T14 chain: KEFGDRHAEGTK

[15] = biological target: T15, Lys(Dnp)-DAGDR-HAEGT-Lys(Abz)amide
T15 chain: KDAGDRHAEGTK

[16] = biological target: T16, Lys(Dnp)-KDEGDR-HAEGT-Lys(Abz)amide
T16 chain: KKDEGDRHAEGTK

[17] = biological target: T17, Lys(Dnp)-LEGDR-HAEGT-Lys(Abz)amide
T17 chain: KLEGDRHAEGTK

[18] = biological target: T18, Lys(Dnp)-DLGDR-QGTFT-Lys(Abz)amide
T18 chain: KDLGDRQGTFTK

[19] = biological target: T19, Lys(Dnp)-TEGDR-HAEGT-Lys(Abz)amide
T19 chain: KTEGDRHAEGTK

[20] = biological target: T20, Lys(Dnp)-DGGDR-EGTFT-Lys(Abz)amide
T20 chain: KDGGDREGTFTK

[21] = biological target: T21, Lys(Dnp)-DSGDR-EGTFT-Lys(Abz)amide
T21 chain: KDSGDREGTFTK

[22] = biological target: T22, DVKPEQPLYDEGDR-[Arg34]GLP-1(9-37)
T22 chain: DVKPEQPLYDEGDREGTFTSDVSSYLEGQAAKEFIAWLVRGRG

[23] = biological target: T23, Lys(Dnp)-DHGDR-HGEGT-Lys(Abz)amide
T23 chain: KDHGDRHGEGTK

[24] = biological target: T24, Lys(Dnp)-EYGDR-HAEGT-Lys(Abz)amide
T24 chain: KEYGDRHAEGTK

[25] = biological target: T25, Lys(Dnp)-EDGDR-HGEGT-Lys(Abz)amide
T25 chain: KEDGDRHGEGTK

[26] = biological target: T26, Lys(Dnp)-HEGDR-HAEGT-Lys(Abz)amide
T26 chain: KHEGDRHAEGTK

[27] = biological target: T27, Lys(Dnp)-DDGDR-HGTFT-Lys(Abz)amide
T27 chain: KDDGDRHGTFTK

[28] = biological target: T28, DVKPGQPLADEGDR-[Arg34]GLP-1(9-37)
T28 chain: T22 chain with E5G, Y9A

[29] = biological target: T29, Lys(Dnp)-EAGDR-HAEGT-Lys(Abz)amide
T29 chain: KEAGDRHAEGTK

[30] = biological target: T30, Lys(Dnp)-ESGDR-EGTFT-Lys(Abz)amide
T30 chain: KESGDREGTFTK

[31] = biological target: T31, Lys(Dnp)-EYGDR-HGEGT-Lys(Abz)amide
T31 chain: KEYGDRHGEGTK

[32] = biological target: T32, Lys(Dnp)-QEGDR-HAEGT-Lys(Abz)amide
T32 chain: KQEGDRHAEGTK

[33] = biological target: T33, Lys(Dnp)-NEGDR-HAEGT-Lys(Abz)amide
T33 chain: KNEGDRHAEGTK

[34] = biological target: T34, Lys(Dnp)-DLGDR-HSQGT-Lys(Abz)amide
T34 chain: KDLGDRHSQGTK

[35] = biological target: T35, Lys(Dnp)-NYTDRHAEGT-Lys(Abz)amide
T35 chain: KNYTDRHAEGTK

[36] = biological target: T36, Lys(Dnp)-YEGDR-HAEGT-Lys(Abz)amide
T36 chain: KYEGDRHAEGTK

[37] = biological target: T37, Lys(Dnp)-DFGDR-HGEGT-Lys(Abz)amide
T37 chain: KDFGDRHGEGTK

[38] = biological target: T38, Lys(Dnp)-EDGDR-EGTFT-Lys(Abz)amide
T38 chain: KEDGDREGTFTK

[39] = biological target: T39, Lys(Dnp)-EEGDR-HGEGT-Lys(Abz)amide
T39 chain: KEEGDRHGEGTK

[40] = biological target: T40, Lys(Dnp)-DLGDR-HAEGT-Lys(Abz)amide
T40 chain: KDLGDRHAEGTK

[41] = biological target: T41, Lys(Dnp)-DSGDR-HAEGT-Lys(Abz)amide
T41 chain: KDSGDRHAEGTK

[42] = biological target: T42, Lys(Dnp)-QEGDR-EGTFT-Lys(Abz)amide
T42 chain: KQEGDREGTFTK

B1: bovine Enterokinase light chain variant (C112A, L134K, I135K) (protein)
chain: IVGGSDSREGAWPWVVALYFDDQQVCGASLVSRDWLVSAAHCVYGRNMEPSKWKAVLGLHMASNLTSPQIETRLIDQIVINPHYNKRRKNNDIAMMHLEMKVNYTDYIQPIALPEENQVFPPGRICSIAGWGAKKYQGSTADVLQEADVPLLSNEKCQQQMPEYNITENMVCAGYEAGGVDSCQGDSGGPLMCQENNRWLLAGVTSFGYQCALPNRPGVYARVPRFTEWIQSFLH
Question: With B1 as the protein, how does the Activity (%) [1] read?
Answer: 181%

Question: What about the Activity (%) [2] of the same protein?
Answer: 243%

Question: What about the Activity (%) [3] of the same protein?
Answer: 373%

Question: What about the Activity (%) [4] of the same protein?
Answer: 438%

Question: What about the Activity (%) [5] of the same protein?
Answer: 586%

Question: And the Activity (%) [6]?
Answer: 513%

Question: What about the Activity (%) [7] of the same protein?
Answer: 172%

Question: And the Activity (%) [8]?
Answer: 419%

Question: And the Activity (%) [9]?
Answer: 604% and 601%

Question: What about the Activity (%) [10] of the same protein?
Answer: 557%

Question: And the Activity (%) [11]?
Answer: 275%

Question: And the Activity (%) [12]?
Answer: 988%

Question: And the Activity (%) [13]?
Answer: 114%

Question: What about the Activity (%) [14] of the same protein?
Answer: 486%

Question: What about the Activity (%) [15] of the same protein?
Answer: 496%

Question: And the Activity (%) [16]?
Answer: 175%

Question: And the Activity (%) [17]?
Answer: 398%

Question: And the Activity (%) [18]?
Answer: 222%

Question: What about the Activity (%) [19] of the same protein?
Answer: 393%

Question: What about the Activity (%) [20] of the same protein?
Answer: 322%

Question: What about the Activity (%) [21] of the same protein?
Answer: 342%

Question: And the Activity (%) [22]?
Answer: 803%

Question: And the Activity (%) [23]?
Answer: 526%

Question: And the Activity (%) [24]?
Answer: 539%

Question: And the Activity (%) [25]?
Answer: 462%

Question: And the Activity (%) [26]?
Answer: 468%

Question: What about the Activity (%) [27] of the same protein?
Answer: 402%

Question: What about the Activity (%) [28] of the same protein?
Answer: 476%

Question: And the Activity (%) [29]?
Answer: 582%

Question: What about the Activity (%) [30] of the same protein?
Answer: 362%

Question: And the Activity (%) [31]?
Answer: 338%

Question: And the Activity (%) [32]?
Answer: 551%

Question: What about the Activity (%) [33] of the same protein?
Answer: 457%

Question: And the Activity (%) [34]?
Answer: 268%

Question: And the Activity (%) [35]?
Answer: 59%

Question: And the Activity (%) [36]?
Answer: 377%

Question: And the Activity (%) [37]?
Answer: 253%

Question: What about the Activity (%) [38] of the same protein?
Answer: 505%

Question: And the Activity (%) [39]?
Answer: 641%

Question: What about the Activity (%) [40] of the same protein?
Answer: 795% and 722%

Question: What about the Activity (%) [41] of the same protein?
Answer: 504% and 380%

Question: And the Activity (%) [42]?
Answer: 411%
